Laboratory results published in publication PMC2809820.

Experiments:
Ets-1 (rhEts-1) [1] = molecular target: T1, Ets-1 (rhEts-1) (human, UniProt P14921 1-441); experiment: competition
T1 sequence: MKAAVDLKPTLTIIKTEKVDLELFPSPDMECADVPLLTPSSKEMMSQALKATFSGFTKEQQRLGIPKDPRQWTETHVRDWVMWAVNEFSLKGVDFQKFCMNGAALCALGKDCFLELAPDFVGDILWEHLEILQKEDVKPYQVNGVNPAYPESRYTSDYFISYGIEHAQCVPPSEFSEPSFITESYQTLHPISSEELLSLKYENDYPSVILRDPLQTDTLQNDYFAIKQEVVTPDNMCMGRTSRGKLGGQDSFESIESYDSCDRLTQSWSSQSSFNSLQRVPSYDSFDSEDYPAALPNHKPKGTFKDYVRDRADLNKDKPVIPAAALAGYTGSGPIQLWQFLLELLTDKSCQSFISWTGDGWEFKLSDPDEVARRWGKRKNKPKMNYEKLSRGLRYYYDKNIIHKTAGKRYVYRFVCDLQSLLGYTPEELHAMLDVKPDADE

Ets-1 (rhEts-1) [2] = molecular target: T1, Ets-1 (rhEts-1); experiment: competition; remark: listed apart in the source
Ets-1 (rhEts-1) [3] = molecular target: T1, Ets-1 (rhEts-1); experiment: EMSA

Binder | binding result (Ets-1 (rhEts-1) [1]) | binding result (Ets-1 (rhEts-1) [2]) | further results
IL4P.2 (dsDNA) DNA 1: TTTTCTCCTGGAAGAGAGGTG DNA 2: CACCTCTCTTCCAGGAGAAAA | no binding |  | 
RHS5 (dsDNA) DNA 1: GGTAACACAGGAAGTCAGCAG DNA 2: CTGCTGACTTCCTGTGTTACC |  | binds | 
IL13P (dsDNA) DNA 1: GTTCGGGGAGGAAGTGGGTAG DNA 2: CTACCCACTTCCTCCCCGAAC |  | binds | 
SC1_ETS1 (dsDNA) DNA 1: CGGCCAAGCCGGAAGTGAGTGCC DNA 2: GGCACTCACTTCCGGCTTGGCCG |  |  | binding result (Ets-1 (rhEts-1) [3]): binds
IL4P.1 (dsDNA) DNA 1: GATTTCACAGGAACATTTTAC DNA 2: GTAAAATGTTCCTGTGAAATC | no binding |  | 
